Test results taken from patent US11311610B2, “Immune-modulating agents and uses therefor” (UNIVERSITY OF TECHNOLOGY SYDNEY, priority 2010, dated 2022).

B1: FhHDM-1: 90-residue polypeptide from F. hepatica, Helminth Defense Molecule-1 (SEQ ID NO:24); recombinant form minus N-terminal signal peptide, expressed in E. coli (protein, listed as Fasciola hepatica)
chain: MRFIVLLCLAEVLLAAYVEARPSEESREKLRESGRKMVKALRDAVTKAYEKARDRAMAYLAKDNLGEKITEVITILLNRLTDRLEKYAGN

Legend:
[1] = test system: interaction of LPS with LPS-binding protein (LBP); assay: Assay for the interaction of LPS with LBP (ELISA); parameters: species or system mouse; details: 5 μg/well, 1 h before 10% sera; ELISA with anti-LBP
Protocol: (§1) FIG. 9 is a graphical representation showing LPS neutralization by FhHDM-1. The ability of FhHDM-1 (Δ), FhHDM-1 p1 (●) or FhHDM-1 p3 (▪) to bind to LPS was investigated by (A) incubating a range of concentrations of proteins (0.02-2 μg/well) in an LPS-coated (100 ng/well) microtitre plate. Bound peptides were detected by ELISA using rabbit anti-FhHDM-1 as a primary antibody. (B) FhHDM-1 or derived peptides (0.1 μg) were incubated in the presence of LPS (0.05-5 μg/well) and bound peptides measured as described above. Binding of peptides to the LPS-immobilized plates was expressed as a percentage of that measured for 2 μg (for panel A) or 0.1 μg (for panel B) of FhHDM-1. Data are the means±SD from three separate experiments. (C) FhHDM-1 and FhHDM-1 p3 but not FhHDM-1 p1 reduced the interaction between LPS and LBP as effectively as LL-37. LPS-coated microtitre plates were incubated with 5 μg/well of LL-37, FhHDM-1 or derived peptides for 1 h prior to the addition of 10% human sera in PBS. Interaction of LBP with LPS was measured by ELISA using an anti-LBP primary antibody and expressed as a percentage of that detected for 10% sera in the absence of added peptides. Data are the mean±SD of three separate experiments. Statistical significance was calculated using the student t-test and represent a comparison to the binding of 10% sera to immobilized LPS. (D) Binding of FITC-conjugated LPS to RAW264.7 cells was inhibited by LL-37, FhHDM-1 and peptides. […] The binding of FITC-LPS was analyzed by flow cytometry. LPS binding was expressed as a percentage of the mean fluorescence obtained for the addition of FITC-LPS to cells in the absence of peptides. […] Two hours later, sera was collected and serum levels of TNF and (F) IL-10 measured by ELISA. (G) Peritoneal macrophages were isolated, cultured unstimulated in media overnight and then levels of TNF and (H) IL-10 in the culture measured by ELISA. […]
The ability of FhHDM-1 and derived peptides to block the interaction of LPS with LPB was assessed by ELISA using an anti-LBP primary antibody. […]

RAW264.7 cells = assay: Binding of FITC-conjugated LPS to RAW 264.7 cells (flow cytometry); assay type: cell-based, murine; details: 0.1-10 μg/mL, 20 min at 4° C.
Protocol: as §1
The effect of FhHDM-1 and derived peptides on the binding of FITC-LPS to CD14+ cells was determined by flow cytometry of the murine macrophage cell line RAW264.7. […]

LPS-binding ELISA = assay: LPS-binding ELISA; parameters: species or system E. coli; details: for binding to immobilised LPS: 0.02-2 μg/well on LPS-coated plate (100 ng/well)
Protocol: as §1
The ability of FhHDM-1 and derived peptides to bind LPS from E. coli 0111:B4 was determined by ELISA using rabbit anti-FhHDM-1 as a primary antibody (FIG. 9A). […]

Molecule | interaction between LPS and LBP [1] | binding of FITC-LPS to RAW264.7 macrophages (RAW264.7 cells) | binding to immobilised LPS (LPS-binding ELISA) | binding to free LPS in solution (competition with immobilised LPS) (LPS-binding ELISA; 0.1 μg/well with LPS 0.05-5 μg/well)
KARDRAMAYLAKDNLGEKITEVITILLNRL (FhHDM-1 peptide 1 comprising a truncated amphipathic helix contained in FhHDM-1) [FhHDM-1 p1, peptide in which the amphipathic helix is truncated] | did not block | reduced binding of FITC-LPS to the cells in a dose-dependent manner albeit to a lesser extent | did not bind to LPS | –
B1 | significantly reduced | reduced binding of FITC-LPS to the cells in a dose-dependent manner albeit to a lesser extent | bound to LPS in a concentration-dependent manner | bound to free LPS in solution
